Laboratory results from patent US20220112288A1 (published 2022).
Positions count from the first letter of the chain named.

B1: 75110_13P21A (antibody, IgG1, V domains shown)
VH: QVQLQQWGAGLLKPSETLSLTCAVSGGSFSGYYWSWIRQPPGKGLEWIGEINHSGSTNCNPSLKSRVTISVDTSNNQFSLKLSSVTAADTAVYYCARVLNYFDYWGQGTLVTVSS
VL: DIQMTQSPSSVSASVGDRVTITCRASPDIANWLAWYQQKPGKAPELLIYAASSLQSGVPSRFSGSGSGTDFTLTISSLQPEDFATYFCQQANSFPLTFGGGTKVESK
notes: Tested as non-clonal AlivaMab Mouse Kappa hybridoma supernatant: human variable domains and human kappa, mouse Fc
B2: 75110_13P22A (antibody, IgG1, V domains shown)
VH: B1 VH with V24A, S25Y, P40S, H53Q, S56N, C59Y, V71A, N75K, Y101W, T109I
VL: DIQMTQSPSSVSASVGDRVTITCRASQGISDWLAWYQQKSGKAPDLLIFAASSLQSGVPSRFSGSGSGTDFTLTISSLQPEDFATYYCQQANSFPYTFGQGTKLEIK
notes: as for B1
B3: 75110_04F22A (antibody, V domains shown)
VH: EVQLVESGGGLVQPGGSLRLSCAASGFTFSSYDIHWVRQATGKGLEWVSTIGTAGDTYYPGSVKGRFTISRENAKNSLYLQMNSLRAGDTAVYYCARGGYYYYGMDVWGQGTTVTVSS
VL: EIVLTQSPGTLSLSPGERATLSCRASQSVYSSYLAWYQQKPGQAPRLLIYGASSRATGIPDRFSGSGSGTDFTLTISRLEPEDFAVYYCQQFGTSPFTFGPGTKVDIK
notes: as for B1
B4: 75110_04P06A (antibody, IgG1, V domains shown)
VH: B3 VH with S31N, I34M, Y100D
VL: B3 VL with G9D, V29L, Y30S, S32V, S77N, A85V, F92Y, T94S
notes: as for B1
B5: 75110_01K10A (antibody, V domains shown)
VH: B3 VH with G10A, S30R, S31N, I34M, Y100D
VL: B3 VL with G9D, V29L, Y30S, S32V, S66T, F92Y, T94S
notes: as for B1
B6: 75110_01G11A (antibody, IgG1, V domains shown)
VH: B3 VH with I34M, K75R, Y79F, Y100D
VL: B3 VL with S14F, S28N, V29T, S54N, F92H
notes: as for B1
B7: 75110_05K11A (antibody, IgG1, V domains shown)
VH: B3 VH with I34M, A40P, G61A, Y100F
VL: B3 VL with A19V, Y30S, S31N, S32T, A85V, F92H, T94S
notes: as for B1
B8: 75110_01J17A (antibody, IgG1, V domains shown)
VH: B3 VH with I34M, A40G, G55D, K75E, Y100D
VL: B3 VL with T5A, S31I, S77T, T94S, I107F
notes: as for B1
B9: 75110_01N04A (antibody, IgG1, V domains shown)
VH: B3 VH with S31N, I34M, Y100D, Y101F, M105L
VL: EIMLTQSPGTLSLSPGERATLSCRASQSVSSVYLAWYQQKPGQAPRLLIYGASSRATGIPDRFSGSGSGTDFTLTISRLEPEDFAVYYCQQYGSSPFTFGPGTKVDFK
notes: as for B1

The binders below were run against T1, huCD4-HIS (human, UniProt P01730 26-390, limits assumed) (assay: ELISA binning, competitor Ibalizumab; 100 ng/mL huCD4-HIS, anti-HIS HRP detection; background 45, max binding 3000000).
T1 construct: the ELISA binning is not described in the text of this stretch

Row | Binder | Ibalizumab ELISA binning signal
1 | B1 | 678000
2 | B2 | 1.16e+06
3 | B3 | 748000
4 | B4 | 1.22e+06
5 | B5 | 890000
6 | B6 | 495000
7 | B7 | 1.18e+06
8 | B8 | 755000
9 | B9 | 1.04e+06

Each binder was assayed against T2, human CD4 on cells (SKW3 cells; human PBMCs) (human, UniProt P01730 26-458) (assay: FACS binning on SKW3 cells pre-incubated with supernatant; competitor RPA-T4-PE-Dazzle 594, its signal read; background 783, max binding 15000).
T2 construct: whole, on cells; SKW3 CD4 knockout cells served as the negative cell line; also called hCD4

Row | Binder | SKW3 FACS Binning RPA-T4-PE-Dazzle 594
10 | B1 | 11900
11 | B2 | 19000
12 | B3 | 2290
13 | B4 | 2190
14 | B5 | 1510
15 | B6 | 2160
16 | B7 | 2190
17 | B8 | 1950
18 | B9 | 2240

Each binder was assayed against T2, human CD4 on cells (SKW3 cells; human …) (assay: FACS binning on SKW3 cells pre-incubated with supernatant; competitor OKT4a read with anti-human A647 secondary; background 5000, max binding 35000).

Row | Binder | SKW3 FACS Binning OKT4a anti-hu A647 Secondary
19 | B1 | 6870
20 | B2 | 6220
21 | B3 | 40200
22 | B4 | 37400
23 | B5 | 30000
24 | B6 | 30100
25 | B7 | 37600
26 | B8 | 37700
27 | B9 | 38100

These binders were tested against T2, human CD4 on cells (SKW3 cells; human …) (assay: FACS primary screen, non-clonal hybridoma supernatant, SKW3 vs SKW3 CD4 knockout cells, anti-human kappa FITC).

Row | Binder | SKW3 WT vs KO anti-hKappa-FITC [fold]
28 | B1 | 2.4
29 | B2 | 2.8
30 | B3 | 1.8
31 | B4 | 1.6
32 | B5 | 2.2
33 | B6 | 2
34 | B7 | 1.8
35 | B8 | 2.1
36 | B9 | 1.9

The binders below were run against T2, human CD4 on cells (SKW3 cells; human …) (assay: FACS confirmation, supernatant on SKW3 WT cells, anti-mouse Fc 647; background gMFI 3300).

Row | Binder | SKW3 WT anti-mFc 647, gMFI [gMFI]
37 | B1 | 30900
38 | B2 | 18200
39 | B3 | 26900
40 | B4 | 24500
41 | B5 | 24300
42 | B6 | 19200
43 | B7 | 35900
44 | B8 | 31600
45 | B9 | 28000

What follows are binders tested against T2, human CD4 on cells (SKW3 cells; human …) (assay: FACS confirmation, supernatant on human PBMCs, anti-mouse Fc 647, CD4+ gate).

Row | Binder | PBMCs, anti-mFc 647 CD4+ gate - RL1 Binding
46 | B1 | 274000
47 | B2 | 215000
48 | B3 | 286000
49 | B4 | 292000
50 | B5 | 283000
51 | B6 | 244000
52 | B7 | 267000
53 | B8 | 280000
54 | B9 | 210000

These binders were tested against T2, human CD4 on cells (SKW3 cells; human …) (assay: FACS primary screen, non-clonal hybridoma supernatant, SKW3 vs SKW3 CD4 knockout cells, anti-mouse Fc A647).

Row | Binder | SKW3 WT vs KO anti-mFc-647 [fold]
55 | B1 | 5.8
56 | B2 | 6.4
57 | B3 | 3.6
58 | B4 | 3.9
59 | B5 | 4.6
60 | B6 | 3.4
61 | B7 | 4
62 | B8 | 4.3
63 | B9 | 3.7

The binders below were run against T2, human CD4 on cells (SKW3 cells; human …) (assay: FACS binning on SKW3 cells pre-incubated with supernatant; competitor OKT4-A488, its signal read; background 2163, max binding 8200).

Row | Binder | SKW3 FACS Binning OKT4 A488
64 | B1 | 9420
65 | B2 | 9370
66 | B3 | 9940
67 | B4 | 10100
68 | B5 | 10800
69 | B6 | 10100
70 | B7 | 9730
71 | B8 | 10000
72 | B9 | 9720

The binders below were run against T2, human CD4 on cells (SKW3 cells; human …) (assay: FACS confirmation, supernatant on human PBMCs, anti-mouse Fc 647, CD4+ percent of viable cells).

Row | Binder | PBMCs, anti-mFc 647 CD4+ Percent Bound of Viable [%]
73 | B1 | 31
74 | B2 | 27
75 | B3 | 32
76 | B4 | 31
77 | B5 | 30
78 | B6 | 30
79 | B7 | 31
80 | B8 | 32
81 | B9 | 33

What follows are binders tested against T2, human CD4 on cells (SKW3 cells; human …) (assay: FACS confirmation, supernatant on SKW3 WT cells, anti-human kappa FITC; background gMFI 2500).

Row | Binder | SKW3 WT anti-hu Kappa FITC, gMFI [gMFI]
82 | B1 | 7580
83 | B2 | 5910
84 | B3 | 5580
85 | B4 | 5600
86 | B5 | 5940
87 | B6 | 5000
88 | B7 | 6700
89 | B8 | 5780
90 | B9 | 5640
